The data set concerns Escherichia coli TOP10. Briefly: shrunken log2 fold change of peptide-encoding DNA abundance (4.5 h post-induction vs induction); higher = less antimicrobial activity (less host growth inhibition). The settings on record: time post-induction: 4.5 h; library: site-saturation at positions 5, 18, 19, 20.
Take RRIRNRPPRLPRPRPRPIPPPRP: the “shrunken log2 fold change” value is -0.0301. Turning to RRIRYRPPRLPRPRPRPVPGPRP, the “shrunken log2 fold change” value was -0.151. In the case of RRIRHRPPRLPRPRPRPPDGPRP, the “shrunken log2 fold change” value amounted to 0.178. The figure for RRIRRRPPRLPRPRPRPIFGPRP is 0.338; for RRIRLRPPRLPRPRPRPSTVPRP it is -0.938.

As to RRIRPRPPRLPRPRPRPYNPPRP, the “shrunken log2 fold change” value was -0.84. On to RRIRRRPPRLPRPRPRPHVCPRP, for which the “shrunken log2 fold change” value came out at 0.0988. In the case of RRIRARPPRLPRPRPRPMRKPRP, the “shrunken log2 fold change” value is -0.046. As to RRIRRRPPRLPRPRPRPLLEPRP, the “shrunken log2 fold change” value stood at 0.534. RRIRTRPPRLPRPRPRPCHEPRP: the “shrunken log2 fold change” value was -0.0167. For the sequence RRIRTRPPRLPRPRPRPYAKPRP, the “shrunken log2 fold change” value was -0.0117. Consider RRIRMRPPRLPRPRPRPENVPRP, for which the “shrunken log2 fold change” value is -0.0285. For the sequence RRIRWRPPRLPRPRPRPVYRPRP, the “shrunken log2 fold change” value is -0.0858. For RRIRWRPPRLPRPRPRPNQSPRP, the “shrunken log2 fold change” value was -0.108. The figure for RRIRDRPPRLPRPRPRPFKYPRP is 0.0966; for RRIRKRPPRLPRPRPRPHISPRP it is -0.00759. As to RRIRNRPPRLPRPRPRPTHWPRP, the “shrunken log2 fold change” value came to 0.661. Consider RRIRERPPRLPRPRPRPAWKPRP, for which the “shrunken log2 fold change” value is -0.0447. Take RRIRARPPRLPRPRPRPMWYPRP: the “shrunken log2 fold change” value is -0.0479. Regarding RRIRARPPRLPRPRPRPNWAPRP, the “shrunken log2 fold change” value was determined as 0.27. Take RRIRQRPPRLPRPRPRPDIMPRP: the “shrunken log2 fold change” value is -0.136. The figure for RRIRFRPPRLPRPRPRPYVPPRP is -0.238. On to RRIRTRPPRLPRPRPRPVITPRP, for which the “shrunken log2 fold change” value came out at 0.0105. For RRIRFRPPRLPRPRPRPFSWPRP, the “shrunken log2 fold change” value was -0.00262.

As for RRIRQRPPRLPRPRPRPYIEPRP, the “shrunken log2 fold change” value is -0.45.

With RRIRQRPPRLPRPRPRPMYPPRP, the “shrunken log2 fold change” value is -0.329. Turning to RRIRNRPPRLPRPRPRPVFNPRP, the “shrunken log2 fold change” value was -0.242. As to RRIRDRPPRLPRPRPRPFEYPRP, the “shrunken log2 fold change” value was -0.00586. For the sequence RRIRWRPPRLPRPRPRPGAPPRP, the “shrunken log2 fold change” value is 0.641.

Consider RRIRRRPPRLPRPRPRPQNHPRP, for which the “shrunken log2 fold change” value is -0.191. Turning to RRIRWRPPRLPRPRPRPIVRPRP, the “shrunken log2 fold change” value is 0.326. On to RRIRPRPPRLPRPRPRPWVPPRP, for which the “shrunken log2 fold change” value was -0.228.

Turning to RRIRDRPPRLPRPRPRPLNEPRP, the “shrunken log2 fold change” value is -0.188. With RRIRARPPRLPRPRPRPAVPPRP, the “shrunken log2 fold change” value came to 0.848. Take RRIRDRPPRLPRPRPRPLWWPRP: the “shrunken log2 fold change” value came out at 0.721. As for RRIRNRPPRLPRPRPRPGVQPRP, the “shrunken log2 fold change” value was 0.444. For RRIRPRPPRLPRPRPRPMIEPRP, the “shrunken log2 fold change” value is -0.0882. Turning to RRIRTRPPRLPRPRPRPNCNPRP, the “shrunken log2 fold change” value is -0.353. In the case of RRIRMRPPRLPRPRPRPVDAPRP, the “shrunken log2 fold change” value was found to be 1.17.

For RRIRSRPPRLPRPRPRPYPEPRP, the “shrunken log2 fold change” value was -0.355. The figure for RRIRNRPPRLPRPRPRPQGMPRP is -0.0261; for RRIRYRPPRLPRPRPRPSIPPRP it is -1.32.

With RRIRNRPPRLPRPRPRPLKQPRP, the “shrunken log2 fold change” value stood at 0.114. RRIRWRPPRLPRPRPRPYMSPRP: the “shrunken log2 fold change” value was -0.212. Regarding RRIRVRPPRLPRPRPRPYMMPRP, the “shrunken log2 fold change” value is -0.00989. For RRIRARPPRLPRPRPRPAWNPRP, the “shrunken log2 fold change” value is -0.132. With RRIRIRPPRLPRPRPRPYWAPRP the figure was -1.07; with RRIRLRPPRLPRPRPRPPVLPRP, 0.0296; with RRIRERPPRLPRPRPRPACDPRP, 0.0619. For the sequence RRIRFRPPRLPRPRPRPKRYPRP, the “shrunken log2 fold change” value was determined as 0.0178.

As for RRIRERPPRLPRPRPRPEPDPRP, the “shrunken log2 fold change” value is 0.0002. With RRIRVRPPRLPRPRPRPGTHPRP the figure was -0.056; with RRIRSRPPRLPRPRPRPIIFPRP, -0.35. With RRIRPRPPRLPRPRPRPIGAPRP, the “shrunken log2 fold change” value amounted to 0.288. Turning to RRIRLRPPRLPRPRPRPNPGPRP, the “shrunken log2 fold change” value was -0.213. Take RRIRIRPPRLPRPRPRPNQQPRP: the “shrunken log2 fold change” value worked out at 0.0352. As to RRIRDRPPRLPRPRPRPHCHPRP, the “shrunken log2 fold change” value is -0.276.

RRIRIRPPRLPRPRPRPTLPPRP: the “shrunken log2 fold change” value turned out to be 0.0197. As to RRIRYRPPRLPRPRPRPRDFPRP, the “shrunken log2 fold change” value was -0.161.

Consider RRIRSRPPRLPRPRPRPQFGPRP, for which the “shrunken log2 fold change” value came to 0.0239. As for RRIRERPPRLPRPRPRPHNHPRP, the “shrunken log2 fold change” value was -0.734. Take RRIRQRPPRLPRPRPRPGAGPRP: the “shrunken log2 fold change” value was found to be 0.451. The figure for RRIRCRPPRLPRPRPRPDDGPRP is -0.0952; for RRIRLRPPRLPRPRPRPWKYPRP it is -0.0875; for RRIRPRPPRLPRPRPRPQGRPRP it is -0.0433. On to RRIRIRPPRLPRPRPRPNHCPRP, for which the “shrunken log2 fold change” value is -0.937.

On to RRIRNRPPRLPRPRPRPMSKPRP, for which the “shrunken log2 fold change” value is -0.197.

Take RRIRHRPPRLPRPRPRPTDPPRP: the “shrunken log2 fold change” value came out at 0.138. On to RRIRDRPPRLPRPRPRPVCAPRP, for which the “shrunken log2 fold change” value turned out to be 1.12. Regarding RRIRGRPPRLPRPRPRPKSHPRP, the “shrunken log2 fold change” value is 0.536.

With RRIRNRPPRLPRPRPRPESHPRP, the “shrunken log2 fold change” value is -0.0363. As for RRIRERPPRLPRPRPRPAWVPRP, the “shrunken log2 fold change” value is 0.174. In the case of RRIRKRPPRLPRPRPRPLHEPRP, the “shrunken log2 fold change” value was 1.06. For the sequence RRIRHRPPRLPRPRPRPKRAPRP, the “shrunken log2 fold change” value stood at 0.0906. For RRIRLRPPRLPRPRPRPKLQPRP, the “shrunken log2 fold change” value worked out at 0.356.

On to RRIRWRPPRLPRPRPRPVMTPRP, for which the “shrunken log2 fold change” value was found to be 0.569. As for RRIRRRPPRLPRPRPRPFDWPRP, the “shrunken log2 fold change” value is 0.0636. Take RRIRQRPPRLPRPRPRPMYTPRP: the “shrunken log2 fold change” value was -0.639. The figure for RRIRQRPPRLPRPRPRPWCIPRP is 0.0342. Turning to RRIRWRPPRLPRPRPRPMCAPRP, the “shrunken log2 fold change” value worked out at 0.713. RRIRNRPPRLPRPRPRPQKFPRP: the “shrunken log2 fold change” value was -0.0476.

For the sequence RRIRCRPPRLPRPRPRPTTCPRP, the “shrunken log2 fold change” value was -0.293. On to RRIRCRPPRLPRPRPRPWVEPRP, for which the “shrunken log2 fold change” value is -0.689.

RRIRGRPPRLPRPRPRPSAWPRP: the “shrunken log2 fold change” value turned out to be 1.94. Turning to RRIRVRPPRLPRPRPRPHIYPRP, the “shrunken log2 fold change” value is -0.519. With RRIRKRPPRLPRPRPRPSAWPRP the figure was 0.534. The figure for RRIRKRPPRLPRPRPRPNPNPRP is 0.179; for RRIRYRPPRLPRPRPRPKCYPRP it is -0.112. With RRIRKRPPRLPRPRPRPNIIPRP, the “shrunken log2 fold change” value worked out at 0.00713. Consider RRIRIRPPRLPRPRPRPPRQPRP, for which the “shrunken log2 fold change” value turned out to be 0.337. In the case of RRIRHRPPRLPRPRPRPQAYPRP, the “shrunken log2 fold change” value is -0.451.

The values above are taken from the supplement of paper PMC9112550, “Optimization of the antimicrobial peptide Bac7 by deep mutational scanning” (BMC Biology, 2022).
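Also: peptides expressed intracellularly from a pBAD plasmid library in pooled LB shake-flask culture, induced with 0.3% L-arabinose, DNA abundance read by NGS, three biological replicates, DESeq2 with apeglm shrinkage.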
